Laboratory results: PMC5149402 (Structure (London, England : 1993), 2016)

B2: full-length rat Cerebellin-1, wild type (hexamer) (natural protein, UniProt P63182 22-193, looked up)
chain: QNETEPIVLEGKCLVVCDSNPTSDPTGTALGISVRSGSAKVAFSAIRSTNHEPSEMSNRTMIIYFDQVLVNIGNNFDSERSTFIAPRKGIYSFNFHVVKVYNRQTIQVSLMLNGWPVISAFAGDQDVTREAASNGVLIQMEKGDRAYLKLERGNLMGGWKYSTFSGFLVFPL

Experiments:
[1] = biological target: the molecule itself; experiment: SEC
[2] = biological target: the molecule itself; experiment: non-reducing SDS-PAGE
[3] = biological target: rat Neurexin-1β (+SS4), residues S48 to P292 (β-unique N-terminal region plus LNS6) (rat, UniProt Q63373 48-292); experiment: ITC
rat Neurexin-1β (+SS4), residues S48 to P292 (β-unique N-terminal region plus LNS6), sequence (Q63373 48-292): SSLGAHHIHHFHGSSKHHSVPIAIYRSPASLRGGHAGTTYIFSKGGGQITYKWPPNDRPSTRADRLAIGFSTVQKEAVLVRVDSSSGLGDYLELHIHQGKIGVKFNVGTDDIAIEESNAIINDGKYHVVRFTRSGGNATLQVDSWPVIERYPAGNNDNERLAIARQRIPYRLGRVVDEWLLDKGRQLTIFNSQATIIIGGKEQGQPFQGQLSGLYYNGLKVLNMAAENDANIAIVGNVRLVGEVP

[4] = biological target: B2; experiment: ITC

B1: rat Cerebellin-1 C34,38S double mutant (trimer) (natural protein, UniProt P63182 22-193, looked up)
chain: QNETEPIVLEGKSLVVSDSNPTSDPTGTALGISVRSGSAKVAFSAIRSTNHEPSEMSNRTMIIYFDQVLVNIGNNFDSERSTFIAPRKGIYSFNFHVVKVYNRQTIQVSLMLNGWPVISAFAGDQDVTREAASNGVLIQMEKGDRAYLKLERGNLMGGWKYSTFSGFLVFPL
[1]
  stoichiometry N: 3

## B2
[2]
  stoichiometry N: 2
[3]
  Kd: 47 nM

B3: rat Neurexin-1α (+SS4), domains LNS2 to LNS6 (domain or fragment)
chain: not shown
[4]
  Kd: 35 nM
  stoichiometry N: 0.912 ± 0.045
